Paper PMC5571939, “The nature of the Syntaxin4 C-terminus affects Munc18c-supported SNARE assembly” (PLoS ONE, 2017)

B3: Sx4_(1-275)-His (domain or fragment, rat, UniProt Q08850 1-275, looked up)
chain: MRDRTHELRQGDNISDDEDEVRVALVVHSGAARLSSPDDEFFQKVQTIRQTMAKLESKVRELEKQQVTILATPLPEESMKQGLQNLREEIKQLGREVRAQLKAIEPQKEEADENYNSVNTRMKKTQHGVLSQQFVELINKSNSMQSEYREKNVERIRRQLKITNAGMVSDEELEQMLDSGQSEVFVSNILKDTQVTRQALNEISARHSEIQQLERSIRELHEIFTFLATEVEMQGEMINRIEKNILSSADYVERGQEHVKIALENQKKARKKKVM
notes: also called Syntaxin4 soluble cytoplasmic domain with C-terminal His6; source: E. coli, purified as described previously [17, 28]; not shown: His6, C-terminal, kept

Assays:
Details in all cases: both partners purified
[1] = target: T1, Munc18c:Sx4_(1-275)-His pre-formed complex (rat | mouse, UniProt Q08850 1-275; Q60770 1-592, C141S); experiment: pull-down; Sx4-His proteins immobilised by C-terminal His6 on Co2+ resin, pre-complexed with de-tagged Munc18c or without it (controls); GST-cleaved SNAP23 and VAMP2 (40 μg) added together, overnight, 4°C; SDS-PAGE, Coomassie
T1 construct: as m1; Munc18c (Munc18-3), mouse; as m10; m1 immobilised by its C-terminal His6 and complexed with m10 before SNAP23 and VAMP2 were added; also called Munc18c/Sx4-His; source: formed on TALON Co2+ beads from purified E. coli proteins; not shown: His6, C-terminal, kept; His6, N-terminal, cleaved
T1 sequence (looked up) 1: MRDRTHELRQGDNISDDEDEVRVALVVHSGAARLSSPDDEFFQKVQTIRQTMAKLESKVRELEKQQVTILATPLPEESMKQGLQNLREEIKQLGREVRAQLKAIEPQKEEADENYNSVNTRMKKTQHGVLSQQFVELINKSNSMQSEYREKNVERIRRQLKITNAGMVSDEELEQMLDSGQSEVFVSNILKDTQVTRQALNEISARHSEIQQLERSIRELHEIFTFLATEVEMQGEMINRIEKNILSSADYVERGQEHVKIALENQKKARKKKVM
T1 sequence (looked up) 2: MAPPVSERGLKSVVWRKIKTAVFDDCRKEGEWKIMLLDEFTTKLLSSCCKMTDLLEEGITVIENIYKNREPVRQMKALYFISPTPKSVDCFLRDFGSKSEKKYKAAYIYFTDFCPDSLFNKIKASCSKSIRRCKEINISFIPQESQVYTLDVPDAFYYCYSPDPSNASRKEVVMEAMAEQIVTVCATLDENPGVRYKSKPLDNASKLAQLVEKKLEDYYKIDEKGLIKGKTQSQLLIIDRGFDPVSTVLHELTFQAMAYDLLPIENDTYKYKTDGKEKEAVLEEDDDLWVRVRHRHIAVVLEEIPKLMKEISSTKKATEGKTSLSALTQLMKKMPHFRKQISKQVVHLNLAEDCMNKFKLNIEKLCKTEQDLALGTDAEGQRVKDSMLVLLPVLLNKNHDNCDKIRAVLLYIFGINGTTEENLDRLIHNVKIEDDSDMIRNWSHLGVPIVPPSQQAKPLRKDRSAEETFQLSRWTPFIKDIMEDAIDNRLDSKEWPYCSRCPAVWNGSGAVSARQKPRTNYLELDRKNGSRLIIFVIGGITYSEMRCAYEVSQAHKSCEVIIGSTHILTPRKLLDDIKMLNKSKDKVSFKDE

Sx4_(1-275)-His = target: B3; experiment: as above
[2] = target: T2, Munc18c:Sx4_(1-298)-TMD (HL-Munc18c with de-tagged full-length Sx4, pre-formed) (mouse, UniProt Q60770 1-592; P70452 1-298); experiment: pull-down; beads with pre-formed HL-Munc18c/Sx4 binary complexes incubated with SNAP23 (100 μg, 21.7 μM) and VAMP2 (80 μg, 31.7 μM) together, overnight, 4°C; SDS-PAGE, Coomassie
T2 construct: Munc18c (Munc18-3), mouse; as m12; Syntaxin4 (Sx4) with its C-terminal transmembrane domain, mouse, amino acids 1-298; as m6; also called HL-Munc18c/Sx4 binary complex; source: formed on TALON Co2+ beads from purified E. coli proteins; not shown: His6 with long linker ([residues removed]), N-terminal, kept; His6, N-terminal, cleaved
T2 sequence (looked up) 1: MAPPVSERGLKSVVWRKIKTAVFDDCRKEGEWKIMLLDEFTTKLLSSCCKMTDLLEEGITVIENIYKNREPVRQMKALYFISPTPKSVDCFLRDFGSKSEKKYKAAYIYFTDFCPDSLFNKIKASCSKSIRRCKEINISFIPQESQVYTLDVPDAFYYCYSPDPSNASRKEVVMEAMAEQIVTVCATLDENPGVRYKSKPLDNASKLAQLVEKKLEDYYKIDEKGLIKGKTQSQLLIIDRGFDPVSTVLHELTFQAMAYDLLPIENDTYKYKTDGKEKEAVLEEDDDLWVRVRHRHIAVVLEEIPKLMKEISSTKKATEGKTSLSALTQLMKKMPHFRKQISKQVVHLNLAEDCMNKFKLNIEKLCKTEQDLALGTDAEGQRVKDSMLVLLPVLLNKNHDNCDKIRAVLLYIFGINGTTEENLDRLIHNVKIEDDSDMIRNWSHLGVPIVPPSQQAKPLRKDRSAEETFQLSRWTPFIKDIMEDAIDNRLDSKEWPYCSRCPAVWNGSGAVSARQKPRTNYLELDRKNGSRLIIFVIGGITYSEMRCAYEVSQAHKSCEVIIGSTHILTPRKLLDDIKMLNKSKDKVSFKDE
T2 sequence (looked up) 2: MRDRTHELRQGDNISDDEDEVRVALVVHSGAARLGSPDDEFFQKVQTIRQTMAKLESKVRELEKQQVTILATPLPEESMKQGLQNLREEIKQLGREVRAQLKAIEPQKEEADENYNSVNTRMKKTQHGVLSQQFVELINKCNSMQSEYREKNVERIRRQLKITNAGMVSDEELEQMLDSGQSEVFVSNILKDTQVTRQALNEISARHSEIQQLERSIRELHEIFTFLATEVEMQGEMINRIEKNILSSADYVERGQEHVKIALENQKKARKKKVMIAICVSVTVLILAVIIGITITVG

HL-Munc18c = target: T3, HL-Munc18c (mouse, UniProt Q60770 1-592); experiment: pull-down; HL-Munc18c (20 μg, 1.4 μM) immobilised on TALON Co2+ beads; de-tagged Sx4 proteins (50 μg) added for 4 h (legend: 6 h), washed; binding buffer with 0.1% Triton X-100; SDS-PAGE, Coomassie
T3 construct: Munc18c (Munc18-3), mouse; The linker is said to have 53 amino acids; also called Munc18c with N-terminal His6-tag and long linker; source: E. coli, purified as described previously [39]; not shown: His6 with long linker ([residues removed]), N-terminal, kept
T3 sequence (looked up): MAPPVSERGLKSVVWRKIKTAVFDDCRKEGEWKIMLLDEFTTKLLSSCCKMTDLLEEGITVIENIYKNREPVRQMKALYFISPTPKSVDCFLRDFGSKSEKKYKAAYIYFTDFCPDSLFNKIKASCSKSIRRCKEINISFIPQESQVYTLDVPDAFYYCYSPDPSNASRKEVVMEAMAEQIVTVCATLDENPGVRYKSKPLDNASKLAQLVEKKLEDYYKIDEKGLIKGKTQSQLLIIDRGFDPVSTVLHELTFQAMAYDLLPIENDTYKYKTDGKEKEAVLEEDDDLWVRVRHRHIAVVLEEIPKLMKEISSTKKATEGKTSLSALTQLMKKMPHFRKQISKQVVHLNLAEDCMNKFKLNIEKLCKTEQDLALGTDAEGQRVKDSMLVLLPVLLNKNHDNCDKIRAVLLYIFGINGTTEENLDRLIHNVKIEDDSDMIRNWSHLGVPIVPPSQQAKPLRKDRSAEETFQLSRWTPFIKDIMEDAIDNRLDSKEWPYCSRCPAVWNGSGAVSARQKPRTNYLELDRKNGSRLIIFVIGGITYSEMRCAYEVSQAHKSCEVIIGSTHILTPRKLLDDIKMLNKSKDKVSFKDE

Munc18c (de-tagged) = target: T4, Munc18c (de-tagged) (mouse, UniProt Q60770 1-592); experiment: BLI; C-terminally His-tagged Sx4 constructs loaded on Ni-NTA biosensors; de-tagged Munc18c 10/25–400 nM in solution; 25 mM Tris-Cl pH 7.5, 150 mM NaCl, 10 mM imidazole, 0.1% TX-100, 10% glycerol, 2 mM βME; BLItz; 1:1 fit
T4 construct: Munc18c (Munc18-3), mouse; also called detagged Munc18c; HTMunc18c after TEV cleavage; source: E. coli, purified (IMAC, TEV cleavage, reverse IMAC, SEC); not shown: His6, N-terminal, cleaved
T4 sequence (looked up): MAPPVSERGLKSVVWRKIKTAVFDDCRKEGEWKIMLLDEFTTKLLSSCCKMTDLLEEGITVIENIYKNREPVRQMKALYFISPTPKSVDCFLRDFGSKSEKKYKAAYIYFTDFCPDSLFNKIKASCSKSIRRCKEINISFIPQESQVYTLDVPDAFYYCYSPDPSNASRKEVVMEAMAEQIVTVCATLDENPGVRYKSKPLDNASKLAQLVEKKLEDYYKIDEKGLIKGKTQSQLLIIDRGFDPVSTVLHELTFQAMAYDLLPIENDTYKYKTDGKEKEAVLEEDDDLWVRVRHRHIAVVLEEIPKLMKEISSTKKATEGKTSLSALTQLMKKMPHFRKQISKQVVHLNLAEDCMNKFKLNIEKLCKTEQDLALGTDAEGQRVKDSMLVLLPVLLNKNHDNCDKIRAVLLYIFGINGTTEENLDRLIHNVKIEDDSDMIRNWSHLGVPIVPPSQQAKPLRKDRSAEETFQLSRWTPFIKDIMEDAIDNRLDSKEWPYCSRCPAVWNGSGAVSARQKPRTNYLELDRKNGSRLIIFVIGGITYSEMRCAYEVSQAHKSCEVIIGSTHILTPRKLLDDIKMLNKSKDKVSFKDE

B1: SNAP23 (GST-cleaved) (natural protein, mouse, UniProt O09044 1-210, looked up)
chain: MDNLSPEEVQLRAHQVTDESLESTRRILGLAIESQDAGIKTITMLDEQGEQLNRIEEGMDQINKDMREAEKTLTELNKCCGLCICPCNRTKNFESGKNYKATWGDGGDNSPSNVVSKQPSRITNGQPQQTTGAASGGYIKRITNDAREDEMEENLTQVGSILGNLKNMALDMGNEIDAQNQQIQKITEKADTNKNRIDIANTRAKKLIDS
notes: SNAP23, mouse, amino acids 1-210; source: purified (GSH-agarose, thrombin cleavage, MonoQ anion exchange)
- binding result [1]: binds
- binding result (Sx4_(1-275)-His): binds
- binding result [2]: binds

B2: Sx4_(1-298)-TMD (de-tagged, in detergent micelles) (natural protein, mouse, UniProt P70452 1-298, looked up)
chain: MRDRTHELRQGDNISDDEDEVRVALVVHSGAARLGSPDDEFFQKVQTIRQTMAKLESKVRELEKQQVTILATPLPEESMKQGLQNLREEIKQLGREVRAQLKAIEPQKEEADENYNSVNTRMKKTQHGVLSQQFVELINKCNSMQSEYREKNVERIRRQLKITNAGMVSDEELEQMLDSGQSEVFVSNILKDTQVTRQALNEISARHSEIQQLERSIRELHEIFTFLATEVEMQGEMINRIEKNILSSADYVERGQEHVKIALENQKKARKKKVMIAICVSVTVLILAVIIGITITVG
notes: Syntaxin4 (Sx4) with its C-terminal transmembrane domain, mouse, amino acids 1-298, synthetic gene (GenScript); Mouse, whereas the soluble Sx4 constructs are rat; also called full-length Sx4; HT-Sx4-TMD after TEV cleavage; source: E. coli Lemo21 (DE3), purified in DDM (TALON Co2+ IMAC, TEV cleavage, reverse IMAC); not shown: His6, N-terminal, cleaved
- binding result (HL-Munc18c): binds

Binder: B3
- Kd (Munc18c (de-tagged)): 21 nM
- koff (Munc18c (de-tagged)): 0.0086 s⁻¹
- kon (Munc18c (de-tagged)): 530000 M⁻¹ s⁻¹
